Test results as given in a protein production outcome set (Wang et al. 2014).

Test: label from the status in PepcDB records

Sequence	protein production
DDAGKRHVYVKEIATGTVKRAIEEKDELIKGYGWINDERLFFVMDKGGNENYHLFASNIDGSNTRDLTPFDGVKASILNMLKEQKDYMIISMNKNNPQIFEPYKLNVVTGELTQLYENKDAANPIQGYEFDKDGELRGYSRLVNGIESELYYKDLATGEFRLLKKTHWDDTFGVIAFNYASKNKDEAYVLTNLDSDKTRIVLYDLKQNKIIREIFANEDYDVSGLHLSRKRNYEIDLMAYEGEKSVVVPVSATYKELHKLMEKEFKGKEFSVVDYDDDETILLIAVQSDKLYGTYYQFDTRTKKFTLLYDLMPQLKEEDMAEMRPIKFKSRDGLTIHGYITLPKAALEGKKVPLIVNPHGGPQGIRDSWGFNPETQLFASRGYATLQVNFRISGGYGKEFLRAGFKQIGRKAMDDVEDGVRYAISQGWVDPDRIAIYGASHGGYATLMGLVKTPDLYACGVDYVGVSNIYTFFDSFPEYWKPFKEMVKEIWYDLDNPEEAAIAKEVSPFFQIDKINKPLFVVQGANDPRVNINESDQIVTALRARGFEVPYMVKYNEGHGFHREENSMELYRAMLGFFAKHLK	failed
MDGLHVSILSLVIFIVLFAVFVYLGFYASRWRKGDLSKLPEWALAGRKLGPYLMWFLLTADLFTAYTFIAVPSLVLASGPIGFYAAFYSGVTAFIALLFMPRLWAVSRNKGYVTAADFVKDRFNSKTLAGLVAVTGVVAELPYIALQIVGMQAALSILLLGLGVSNISLVNDLSLLVSFIILAAFVFTSGLRGAALTAVYKDIIILATVITVAIYVPLAFGGFSAAFSNAATYSSQVNSALNGVNKPIFYQYLQSTVSNNLAYISLAIGSAFALYLYPHAVNGSVSADSKKSLKISLALQPFYSLILAIIALFGILVYANTNVLNFIIHAKSGAVAVPALIGYTMPDWFVGVALLGIFIGGLVPAAIMAIGAANLLTRNIIKELKPNMSPNTESSLAKWISTAFKFIALALVFTVPATYAIQLQLLGGVIILQTLPPLFLGLYTHKLNSHSLIAGWVAGMFSGIYLTMLANHFGPIKTTSFITPIGVMYIGAISVIINVAIGLIGTAIAYGVGWRPRTGVKTEELV	failed
MSTVKNGTLEQDKLNWFKYLLFGIQHVLVMIAVPITSVFLVAKALSLSDQLTVNLMSATFLVCGLGTLLQSIGVYKFGSRLPFVMIPGGAPIVMFLGIAQEKDLATASGAVILTSLFYFIILPVFKRFLRFFPNIVIGTLLILVSINLIKIYGGLVIGKPDTADFASTLNIGLAFATIAASLFFARVLKGTLSQLSILLGLIFGTILSAFLGQMHFETITQPTIFSLPTIMPFGVPKFDLVATIPLLIFSLISMVEATGQTIAISDLVGKKETAFERVPPTIRGDALISLLGGWLGTSMIITSGENIGIVRATQVRSRYVTIIAGIILLIISVFTPLAHLANAIPVAVVSGTAIIVFSIIGTIGIDILRRVDLHEKGNMYVLAGALTMGLLPILVNGVYTNFPHALQPILNNGLAMGALTAILLNIVFSTHSQADAHQESK	failed
SDQTRYSRLANITKIINTKLELREVLQRVTMAISEEIVRCDAVGIYLPEEDGTFRGFAGKPETINGVTLDTQVIDPGIDLLAKEVIETKKTIYIPDTSKDYRPDPRPVDAFKIKSLLALPISFGQELFGLVFLFDYGVPMNLTDSEIQSVEAYVNMAAVAIQNAKNLTQKENLIAEKQLLLNVTRDLSVCSS	failed
MGHHHHHHSHMDALSPSPAIPSNTDYPGPHSFDVSFQQSSTAKSATWTYSTELKKLYCQIAKTCPIQIKVMTPPPQGAVIRAMPVYKKAEHVTEVVKRCPNHELSREFNEGQIAPPSHLIRVEGNSHAQYVEDPITGRQSVLVPYEPPQVGTEFTTVLYNFMCNSSCVGGMNRRPILIIVTLETRDGQVLGRRCFEARICACPGRDRKADEDSIRKQQVSDSTKNGDGTKRPFRQNTHGIQM	failed
SKEDTEITIQKIMDAVVDQLLRLGYDKMSYTTLSQQTGVSRTGISHHFPKKTDFTAALDGRIFKMFIEHLEFEKGLDAFSQSWIKALEDSEFLAILRLLFHHIVTSESAHEFAANGIDRLYKMVESQFGSGGDKELEWLIGRSLIQ	failed
MFRVLHLADLHLGYRPDLPAPVREEVYRARNRVLQAAVDLALDPRQGISLVLIAGDLFDNHRPEASLVEETIRQLTRLEAAGIQVITVPGNHDEITYNDAVYRREAGRWPGLLVTDPMPAKVATLKVKGDTCHLMAMAYTGGVTRVDGPLKAFPPAEGEGVNLAVFHGSLDWDGGERSLPLDGEALAAAGYDYIALGHIHRGGQRRLGRGLAVYAGMVAGKGFADPGTGSWTIVTLGDGPARVEQVPARVTPWRLVDLDVTAFQEPEELETAVRDALDPGALMQVRLTGSLAFDLDLEGLQARLGHPCPYLELVNETAGWTPEILESIAAEPTIRGLFVRRLQEKLAGSAGPGEAEVIRRAIFRGLLALKGGSR	failed
MGAAVGTSEAIQMVNQRQAVWVDVRPTEQFQAGHIAQARSLPAADLEKKAGALPKNKPLIVVCEQGRDAARIAARLRSQGFAEVSVLEGGMRAWFAAGLPVTQKGLEHHHHHH	failed
MTQHRLNTSQWFGLLGWLVLCYAVAALGAMASIQAASFYAQLQRPAWAPPGWLFGSVWTVLYGMMAVSVWSVWRRGGWAGARVALTLFLVQLALNGLWSWLFFAWHLGAWAFTDIVALWLVLAATIGVFAKRQALAAWLLVPYLAWVSFAAALNFSVWQLNLQMLG	failed
MPSPSGGWGCGGTWARGVDGARLFSIHHQAVRPNLSTISPPKEPPMIEVRHLCKSFARKPAVQDISFSIPAGEIVGYLGPNGAGKSTTIKVLTGLLVPDSGEVRVGGLVPWKQRRQHVARLGAVFGQRTTLWWDLPVRESLELLRHVYRVPAARFAENLAGFTELLELGPFLNTPARALSLGQRMRADLAAALLHDPELLFLDEPTVGLDVVAKERIREFVKAVNAERGVTVLLTTHDLGDVERLARRVMMIDTGRLLFDGPLAELQARYGGERELWVEFEKAPAQPALPGLTLLGQDGPRVRYGFSGAAAAPIAQVTALAPVRDLAVKEPEVEATIRRIYEGNLLGSRSVREGLEHHHHHH	failed
MNDRACVSARTRWPLVSVLIPAFNHARFVQRCLDSVLEDPYPCKEIVIIDDGSRDATGEKISQWISDHGHRLPVHFVQRENRGVAATLNELALRARGEYLRLGASDDYLLPGGLDAQVRYLRGHPQKLAVIGDACVVDAHGQLMHASAMRDLHRVDKDLYRSESGIRHAVIRQWAVSGAVALLRRSALDARSRWDESLRIEDWDFFLRLVAGNALGFIDLPVCAYRLHGNNLSKTADVPARIANLCESRQVALRCAPLFDEPDRMLLHAQARYIAAKVEFLRRRPHRIAMHLAVYAGLSLSARWRPKRVARAAELA	failed
MNYHWSDHPDPNKWADCVHCGMCLEACPTYELTGHEQQSPRGRVHLIKSVAEGKLEVNEAFADPVFTCLDCRACETACPADVEVGGLIEEARGQIRQALPLSGWKLEHHHHHH	failed
MTLTIPNAPGSSGYLDMFPERRMSYFGNSYILGLTVTAGIGGLLFGYDTGVISGALLYIKDDFEVVKQSSFLQVYNVSSFTSSKLETIVSMALVGAMIGAAAGGWINDYYGRKKATLFADVVFAAGAIVMAAAPDPYVLISGRLLVGLGVGVASVTAPVYIAEASPSEVRGGLVSTNVLMITGGQFLSYLVNSAFTQVPGTWRWMLGVSGVPAVIQFILMLFMPESPRWLFMKNRKAEAIQVLARTYDISRLEDEIDHLSAAEEEEKQRKRTVGYLDVFRSKELRLAFLAGAGLQAFQQFTGINTVMYYSPTIVQMAGFHSNQLALFLSLIVAAMNAAGTVVGIYFIDHCGRKKLALSSLFGVIISLLILSVSFFKQSETSSDGGLYGWLAVLGLALYIVFFAPGMGPVPWTVNSEIYPQQYRGICGGMSATVNWISNLIVAQTFLTIAEAAGTGMTFLILAGIAVLAVIFVIVFVPETQGLTFSEVEQIWKERAYGNISGWGSSSDSNNMEGLLEQGSQS	not failed
MRFRQLLPLFGALFALYIIWGSTYFVIRIGVESWPPLMMAGVRFLSAGMLLMAFLLLRGEKLPPLRQTINAALIGLLLLAVGNGLVTVAEHQNVPSGIAAVVVATVPLFTLCFSYFFGIKTRKLEWVGIAIGLAGIILLNSGGNLSGNPWGAILILIGSMSWAFGSVYGSRIALPVGMMAGAIEMLAAGVVLLCAAFLSGEKLATLPGLSGLMAVGYLALFGSIIAINAYMYLIRNVSPALATSYAYVNPVVAVLLGTGLGGERLSPVEWAALGVIVFAVVLVTLGKYLFPARAVVTPCKTEDSRQ	failed
